{"source": "the nanobody polyreactivity screen of Harvey et al. (2022)"}
{"test": "yeast display, Sf9 membrane polyspecificity reagent, FACS + sequencing; frameworks hold sequencing errors", "method_in_brief": "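In a synthetic yeast display library (Saccharomyces cerevisiae BJ5465), nanobody expression was induced with galactose for 36–48 hours. FACS gates were set low and high (top ~1%) using anti-HA fluorescence for expression and streptavidin fluorescence for binding of the Sf9 membrane reagent. Each polyreactivity label is drawn from the gate of origin.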"}
{"sequence": "QVQLVESGGGLVQAGGSLRLSCAASGGIFDANAMGWYRQAPGKERELVAAISSGGITKYADSVKGRFTISRDNAKNTVYLQMNSLKPEDTAVYYCAASWYRYRFIRYDYWGQGTQVTVSS", "polyreactivity (PSR sort gate)": "high polyreactivity"}
{"sequence": "QVQLVESGGGLVQAGGSLRLSCAASGSIFGYYDMGWYRQAPGKEREFVAASTFRGGRTYYADSVKGRFTISRDNEKNTVYIQMYSLKPEDTAVDFCAAGYHHRWGNYWGQGTQVTVSS", "polyreactivity (PSR sort gate)": "high polyreactivity"}
{"sequence": "QVQLVDSGGGLVQAGGSLRLSCAASGRTSYYNTMGWYRQAPGKERELVAAITGRGDSTYYADSVKGRFTISRDNAKNTVYLQMNSLKPEDTAVYYCAADELHLLYRVSKFVDYNHWGQGTQVTVSS", "polyreactivity (PSR sort gate)": "low polyreactivity"}
{"sequence": "QVQLVESGGCLVQAGGRLRLSCAASGRTFTGYTMGWYRQAPGKEREFVAAIRKSGGSTYYADSVKGRFTISRDNAKNTVYLQMNSLKPEDTAVYYCASRYRYYYTRYDYWGQGTQVTVSS", "polyreactivity (PSR sort gate)": "high polyreactivity"}
{"sequence": "QVQLVESGGGLVQAGGSLRLSCAASGSIFFPYAMGWYIQAPGKERELVAAITGSTGSTYYADSVKGRFTISRDNAKNTVYLQMNSLKPEDTAVYYCAAAEYFVSGGIMDYWGQGTQVTVSS", "polyreactivity (PSR sort gate)": "high polyreactivity"}
{"sequence": "QVQLLESGGGLVQAGGSLRLSCASSGRTFVYYAMGRYRQAPGKERELVAAITFSGGSTYYADSVKGRFTISRDNAKNTVYLQMNSLKPEDTAVYYCAAQYRYSYPLGDYWGQGPQVTVSS", "polyreactivity (PSR sort gate)": "low polyreactivity"}
{"sequence": "QVQLVESGGGLVQAGGSLRLSCAASGRIFERYAMGAYRQAPGKERELVAAISVSGSGTFYADSVKGLFTISRDNAKNTVYLQMNSLKTEDTAVYYCAADASLLGLFQGYDYWGQGTQVSVSS", "polyreactivity (PSR sort gate)": "low polyreactivity"}
{"sequence": "QVQLVESGGGLVQAGGSLRLSCAASGITFGDYAMGWYRQAPGKEMEMVAGINWSGDGTYYADSVKGRFTISRDNAKNTVYLQMNSLKPEDTAVYYCNARGIPLYSYRDYRFVVLNFDYWGQGTQVTVSS", "polyreactivity (PSR sort gate)": "low polyreactivity"}
{"sequence": "QVQLVESGGGLVQAGGSLRLSCAASGSISIFYMGWYRQAPGKERELVAAISWSGGRTYYADSVKGRFTISRDNAKNTVYLQMNSLKREDTAVYYCAASRSFPGYGLYYYWGQGTQVTVSS", "polyreactivity (PSR sort gate)": "low polyreactivity"}
{"sequence": "QVQLVESGGGLVQAGGSLRLSCAASGGIFARNAMGWYRQAPGKVRELVAAISWSGGRTYYADSVKGRFTISRDNAKNTDYLQMNSLKPEDTAVYYSAADHDPWWAWEFDYWGQGTQVTVSS", "polyreactivity (PSR sort gate)": "low polyreactivity"}
{"sequence": "QVQLVESGGGLVQAGGSLRLSCAASGRIFGLNAMGWYRQAPGKERELVAAIDQGDGITYYADSVKGRFTISRDNAKNTVYLQMNSLKPEDTAVYYCAAEVSYKEIYQYYWIYPAYNYWGQGTQVTVSS", "polyreactivity (PSR sort gate)": "high polyreactivity"}
{"sequence": "QVQLVESGGGLVQAGGSLRLSCAASGSTFRRNAMGWYRQAPGKERELVAAISRRGGSTYYADSVKGRFTISRDNAKNTVYLQMNSLKPEDTAVYYCAADNTQVRPKYDYWGQGTQVTVSS", "polyreactivity (PSR sort gate)": "high polyreactivity"}
{"sequence": "QVQLVDSRGGLVQAGGSLRLSCAASGNTFGFNAMGWNRQARGKERHLVAAITWSVGRTYYADSVKRRFTISRDHAKNTVYLEMNSLKPEDTAVYYCAKDFEAGDDYFAYDYWGQGTQVTVSS", "polyreactivity (PSR sort gate)": "low polyreactivity"}
{"sequence": "QVQLVESGGGLVQAGGSLRLSCAASGRTFSAYAMGWYRQAPGKERELVARITSVDSTNYADSVKGRFTISRDNAKNTVYLLMNSLKPEDTAVYYCNATFGYPFVDYDDYWGQGTQVTVSS", "polyreactivity (PSR sort gate)": "low polyreactivity"}
{"sequence": "QVQLVESGVGLVQAGGSLRLSCASSGSTCGYYTMGWYRQAPGKERELVAAITKTGGGTYYADSVKGRFTISRDNAKNTDYLQMNSLKPEDTAVYYCAAYSRFTSDYWGQGTQVTVSS", "polyreactivity (PSR sort gate)": "high polyreactivity"}
{"sequence": "KVQLVESGGGLVQAGGSLRISCAASGSIFGYYTMGWYRQAPGKERELVARITRGGSTYYADSVKGRFTISRDNAKNTVYLHMNSLKPEDTAVYFCNADSRYRYEYWGLGTQVTVSS", "polyreactivity (PSR sort gate)": "low polyreactivity"}
{"sequence": "QVQLVESGGGLVQAGGSLRLSCAASGRIFGVYAMGWYRQAPGKERELVAAISRGGSTKYADSVKGRFTISRDNAKNTVYLQMNSLKPEDTAVYYCAARRWGRVYTTYTGGYWGQGTQVTVSS", "polyreactivity (PSR sort gate)": "high polyreactivity"}
